Tests used:
Test in all cases: SEC
[1] = molecular target: Chimeric IN H-F-F (NTD of HIV-1, CCD and CTD of FIV) (HIV-1 | FIV (Petaluma)) (UniProt P12497)
[2] = molecular target: Chimeric IN F-F-H (NTD and CCD of FIV, CTD of HIV-1) (FIV (Petaluma) | HIV-1) (UniProt P12497)
[3] = molecular target: Chimeric IN F-H-H (NTD of FIV, CCD and CTD of HIV-1) (FIV (Petaluma) | HIV-1) (UniProt P12497)
[4] = molecular target: Chimeric IN F-H-F (NTD and CTD of FIV, CCD of HIV-1) (FIV (Petaluma) | HIV-1) (UniProt P12497)

Substance: Chimeric IN H-F-F (NTD of HIV-1, CCD and CTD of FIV) (from UniProt P12497 2-52) (enzyme)
- stoichiometry N [1]: 2

Substance: Chimeric IN F-F-H (NTD and CCD of FIV, CTD of HIV-1) (from UniProt P12497 211-289) (enzyme)
- stoichiometry N [2]: 2

Substance: Chimeric IN F-H-H (NTD of FIV, CCD and CTD of HIV-1) (from UniProt P12497) (enzyme)
- stoichiometry N [3]: 2

Substance: Chimeric IN F-H-F (NTD and CTD of FIV, CCD of HIV-1) (from UniProt P12497 53-210) (enzyme)
- stoichiometry N [4]: 2
